The values that follow come from patent US20200369765A1.

Test [1] deals with Human Siglec-9 (human) (UniProt Q9Y336). In words: flow cytometry titration on neuraminidase-treated moDCs, goat F(ab')2 anti-human IgG (Fc) PE; table under the right panel; the curve itself is flat. (Flow cytometry measures light scatter and fluorescence of single cells or particles in a stream.)
For test [2] the target is unchanged. In words: flow cytometry titration on untreated monocyte-derived dendritic cells (moDCs), goat F(ab')2 anti-human IgG (Fc) PE; table under the left panel; the curve itself is flat.
Another test concerns the target Human Siglec-7 (human) (UniProt Q9Y286). In words: flow cytometry on fresh purified human NK cells (CD3-/CD56+), isotype control staining.
The target in test [3] is Human Siglec-9 (human) (UniProt Q9Y336). The description is as above.

Sequence of Human Siglec-9 (human) (Q9Y336 18-463): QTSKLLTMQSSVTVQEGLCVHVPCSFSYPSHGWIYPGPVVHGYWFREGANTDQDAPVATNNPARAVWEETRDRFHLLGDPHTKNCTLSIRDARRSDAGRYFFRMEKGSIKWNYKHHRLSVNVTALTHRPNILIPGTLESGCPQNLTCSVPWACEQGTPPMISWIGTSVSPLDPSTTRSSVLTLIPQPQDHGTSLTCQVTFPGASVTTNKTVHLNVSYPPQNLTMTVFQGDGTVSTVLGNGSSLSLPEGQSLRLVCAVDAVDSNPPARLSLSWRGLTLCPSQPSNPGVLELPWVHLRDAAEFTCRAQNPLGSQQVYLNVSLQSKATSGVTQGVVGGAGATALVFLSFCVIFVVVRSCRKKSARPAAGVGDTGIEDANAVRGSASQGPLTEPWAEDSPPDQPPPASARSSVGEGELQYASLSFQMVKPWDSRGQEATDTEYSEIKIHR
Sequence of Human Siglec-7 (human) (Q9Y286 19-467): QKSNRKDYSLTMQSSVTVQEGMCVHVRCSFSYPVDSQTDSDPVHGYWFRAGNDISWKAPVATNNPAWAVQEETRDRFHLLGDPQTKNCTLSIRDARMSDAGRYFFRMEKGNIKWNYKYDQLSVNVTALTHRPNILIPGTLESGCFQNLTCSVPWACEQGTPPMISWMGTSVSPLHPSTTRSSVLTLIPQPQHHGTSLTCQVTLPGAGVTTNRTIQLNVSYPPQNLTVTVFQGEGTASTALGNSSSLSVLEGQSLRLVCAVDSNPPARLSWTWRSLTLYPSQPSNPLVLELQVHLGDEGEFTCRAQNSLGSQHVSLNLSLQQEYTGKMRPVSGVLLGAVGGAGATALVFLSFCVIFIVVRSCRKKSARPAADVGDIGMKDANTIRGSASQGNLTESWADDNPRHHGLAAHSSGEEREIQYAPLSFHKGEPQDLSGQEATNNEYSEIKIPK

With Isotype control (antibody), the concentration giving a half-maximal response (EC50) in the test with Human Siglec-9 (human) [1] turned out to be 1.22 µg/mL; in the test with Human Siglec-9 (human) [2], 2.24 µg/mL.
For the substance Isotype control - APC (antibody), in the test with Human Siglec-7 (human), the percent of NK cells in quadrant Q1 (APC positive, PE negative) worked out at 0.975% and the percent of NK cells in quadrant Q2 (APC positive, PE positive) amounted to 0.34%.
In the test with Human Siglec-9 (human) [3], Isotype control - PE (antibody) returned a percent of NK cells in quadrant Q2 (APC positive, PE positive) of 0.34% and a percent of NK cells in quadrant Q3 (PE positive, APC negative) of 2.54%.

In general, EC50 refers to the concentration that produces a half-maximal response. Lower therefore signals greater potency.
